Reference: PMC7039211, “Cryo-EM structure of the complete and ligand-saturated insulin receptor ectodomain” (The Journal of Cell Biology, 2019)

Biological target: the molecule itself
Assay: cryo-EM structure; ~1.4 µM IR-ECD with ~40 µM insulin (28x molar excess), ~30 min at 4°C, HBS; no symmetry imposed; saturated state, 4.3 Å

B1: human insulin receptor ectodomain protomer IRαβ0 (domain or fragment)
chain 1: HLYPGEVCPGMDIRNNLTRLHELENCSVIEGHLQILLMFKTRPEDFRDLSFPKLIMITDYLLLFRVYGLESLKDLFPNLTVIRGSRLFFNYALVIFEMVHLKELGLYNLMNITRGSVRIEKNNELCYLATIDWSRILDSVEDNYIVLNKDDNEECGDICPGTAKGKTNCPATVINGQFVERCWTHSHCQKVCPTICKSHGCTAEGLCCHSECLGNCSQPDDPTKCVACRNFYLDGRCVETCPPPYYHFQDWRCVNFSFCQDLHHKCKNSRRQGCHQYVIHNNKCIPECPSGYTMNSSNLLCTPCLGPCPKVCHLLEGEKTIDSVTSAQELRGCTVINGSLIINIRGGNNLAAELEANLGLIEEISGYLKIRRSYALVSLSFFRKLRLIRGETLEIGNYSFYALDNQNLRQLWDWSKHNLTITQGKLFFHYNPKLCLSEIHKMEEVSGTKGRQERNDIALKTNGDQASCENELLKFSYIRTSFDKILLRWEPYWPPDFRDLLGFMLFYKEAPYQNVTEFDGQDACGSNSWTVVDIDPPLRSNDPKSQNHPGWLMRGLKPWTQYAIFVKTLVTFSDERRTYGAKSDIIYVQTDATNPSVPLDPISVSNSSSQIILKWKPPSDPNGNITHYLVFWERQAEDSELFELDYCLKGLKLPSRTWSPPFESEDSQKHNQSEYEDSAGECCSCPKTDSQILKELEESSFRKTFEDYLHNVVFVPRPSRKRR
chain 2: SLGDVGNVTVAVPTVAAFPNTSSTSVPTSPEEHRPFEKVVNKESLVISGLRHFTGYRIELQACNQDTPEERCSVAAYVSARTMPEAKADDIVGPVTHEIFENNVVHLMWQEPKEPNGLIVLYEVSYRRYGDEELHLCVSRKHFALERGCRLRGLSPGNYSVRIRATSLAGNGSWTEPTYFYVTDYLDVPSNIAK
modifications: glycosylated | glycosylated
In the case of B1, the “stoichiometry N” value is reported as 2.
